{"source": "patent US20220064276A1", "about": "(SCHOLAR ROCK, published 2022)", "key": {"[1]": {"target": "T1, human GARP-proTGFβ1 complex (human, UniProt Q14392 18-627; P01137 30-390, limits assumed)", "T1 construct": "Exemplary entries; also called Hu GARP-proTGFβ1; huGARP proTGFb1", "T1 sequence (Q14392 18-627 limits assumed, chain 1 of 2)": "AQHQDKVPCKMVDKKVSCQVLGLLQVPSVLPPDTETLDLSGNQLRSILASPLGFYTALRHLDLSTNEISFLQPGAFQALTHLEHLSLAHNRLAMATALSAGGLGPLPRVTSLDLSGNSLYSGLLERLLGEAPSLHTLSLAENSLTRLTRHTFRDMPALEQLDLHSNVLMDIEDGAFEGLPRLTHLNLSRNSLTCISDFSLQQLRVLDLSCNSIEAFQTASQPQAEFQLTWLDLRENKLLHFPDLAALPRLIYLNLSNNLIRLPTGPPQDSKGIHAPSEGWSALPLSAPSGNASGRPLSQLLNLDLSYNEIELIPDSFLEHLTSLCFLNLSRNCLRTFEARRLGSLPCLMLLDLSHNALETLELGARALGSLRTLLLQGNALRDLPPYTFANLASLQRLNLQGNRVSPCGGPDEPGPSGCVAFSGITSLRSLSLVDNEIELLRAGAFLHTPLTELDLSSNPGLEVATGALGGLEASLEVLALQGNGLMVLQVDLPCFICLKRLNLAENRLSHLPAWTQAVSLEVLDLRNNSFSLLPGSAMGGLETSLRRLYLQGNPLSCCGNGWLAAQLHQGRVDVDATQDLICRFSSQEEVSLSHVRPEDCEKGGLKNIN", "T1 sequence (P01137 30-390 limits assumed, chain 2 of 2)": "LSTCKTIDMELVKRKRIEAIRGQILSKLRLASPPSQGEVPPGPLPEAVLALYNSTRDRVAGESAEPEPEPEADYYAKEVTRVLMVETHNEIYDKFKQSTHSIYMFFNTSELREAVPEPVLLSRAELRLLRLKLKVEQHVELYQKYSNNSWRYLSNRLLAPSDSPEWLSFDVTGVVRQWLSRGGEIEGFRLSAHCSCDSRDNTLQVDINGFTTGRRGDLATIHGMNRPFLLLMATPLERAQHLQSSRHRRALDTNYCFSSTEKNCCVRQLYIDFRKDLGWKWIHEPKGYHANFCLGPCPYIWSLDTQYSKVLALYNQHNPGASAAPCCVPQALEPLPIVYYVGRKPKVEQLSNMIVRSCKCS", "experiment": "Octet (bio-layer interferometry), response at 200 nM antigen; 0.1 nm cutoff designates meaningful binding", "description": "This experiment was performed at 200, 100, 50, and 25 nM human GARP proTGFb1 and human LTBP1 proTGFbl. […] Surface plasmon resonance (SPR)-based assays"}, "[2]": {"target": "T2, human LTBP3-proTGFβ1 complex (human, UniProt Q9NS15 44-1303; P01137 30-390, limits assumed)", "T2 construct": "Exemplary entries; also called Hu LTBP3-proTGFβ1; huLTBP3 proTGFb1", "T2 sequence (Q9NS15 44-1303 limits assumed, chain 1 of 2)": "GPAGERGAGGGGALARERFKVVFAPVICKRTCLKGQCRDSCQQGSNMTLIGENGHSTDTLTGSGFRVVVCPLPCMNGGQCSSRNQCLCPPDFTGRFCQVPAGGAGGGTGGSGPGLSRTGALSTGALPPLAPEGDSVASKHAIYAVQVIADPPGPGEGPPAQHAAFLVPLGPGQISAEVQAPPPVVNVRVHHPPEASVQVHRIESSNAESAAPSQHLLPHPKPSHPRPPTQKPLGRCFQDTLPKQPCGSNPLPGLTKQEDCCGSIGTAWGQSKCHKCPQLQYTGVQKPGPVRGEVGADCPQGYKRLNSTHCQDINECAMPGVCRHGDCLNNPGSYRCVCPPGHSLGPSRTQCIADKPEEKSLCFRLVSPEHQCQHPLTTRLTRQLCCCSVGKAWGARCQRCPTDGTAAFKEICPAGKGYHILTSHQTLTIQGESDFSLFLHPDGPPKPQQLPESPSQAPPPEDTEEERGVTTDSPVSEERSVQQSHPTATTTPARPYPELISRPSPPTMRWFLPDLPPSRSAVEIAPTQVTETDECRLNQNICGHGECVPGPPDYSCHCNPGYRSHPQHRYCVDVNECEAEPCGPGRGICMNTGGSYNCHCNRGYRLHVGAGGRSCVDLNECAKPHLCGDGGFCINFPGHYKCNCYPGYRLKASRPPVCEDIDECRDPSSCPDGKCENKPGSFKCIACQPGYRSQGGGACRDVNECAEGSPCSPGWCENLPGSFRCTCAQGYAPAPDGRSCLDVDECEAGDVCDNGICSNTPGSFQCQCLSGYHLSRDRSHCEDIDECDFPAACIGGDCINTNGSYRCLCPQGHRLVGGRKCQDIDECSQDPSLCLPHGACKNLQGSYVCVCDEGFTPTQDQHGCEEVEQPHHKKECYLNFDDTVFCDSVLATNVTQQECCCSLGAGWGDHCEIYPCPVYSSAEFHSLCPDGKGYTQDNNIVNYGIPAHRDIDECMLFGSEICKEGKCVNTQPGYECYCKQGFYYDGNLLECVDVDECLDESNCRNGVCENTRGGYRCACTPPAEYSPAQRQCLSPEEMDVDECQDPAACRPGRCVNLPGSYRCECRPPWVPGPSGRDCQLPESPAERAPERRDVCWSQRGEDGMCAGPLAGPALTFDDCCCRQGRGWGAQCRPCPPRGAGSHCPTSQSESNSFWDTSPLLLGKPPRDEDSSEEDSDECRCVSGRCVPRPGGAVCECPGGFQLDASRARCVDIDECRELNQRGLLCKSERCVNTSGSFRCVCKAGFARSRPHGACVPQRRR", "T2 sequence (P01137 30-390 limits assumed, chain 2 of 2)": "as the sequence (P01137 30-390 limits assumed, chain 2 of 2) above", "experiment": "Octet BLI, IgG captured", "description": "(§1) LTBP complex-specific antibodies from the first round of affinity maturation/optimization (SR-AB14, SR-AB16, SR-AB17, SR-AB18, SR-AB19) were selected for a second round of affinity maturation/optimization (i.e., CDR-H3 mutagenesis as described herein) and particular progeny antibodies (SR-AB20, SR-AB21, SR-AB22, SR-AB23, SR-AB24, SR-AB25, SR-AB26, SR-AB27, SR-AB28, and SR-AB29) were assessed for their ability to bind various proTGFβ1 constructs. Binding affinities of the optimized antibodies were measured by Octet against human LTBP1-proTGFβ1, human LTBP3-proTGFbl, mouse LTBP1-proTGFβ1, mouse LTBP3-proTGFbl, and GARP-proTGFβ1 complexes, essentially as described in Example 6. […] The antigens were allowed to associate for 3 minutes followed by a 5-minute dissociation. Kinetics buffer (ForteBio®) was used throughout the experiment, and KD was determined using a 1:1 fitting model for each antibody antigen pair."}, "[3]": {"target": "T3, human LTBP1-proTGFβ1 complex (human, UniProt Q14766 347-1721; P01137 30-390)", "T3 construct": "Large latent complex: one presenting molecule disulfide-linked to a proTGFβ1 dimer; also called Hu LTBP1-proTGFβ1; huLTBP1 proTGFβ1", "T3 sequence (P01137 30-390 limits assumed, one chain of several)": "as the sequence (P01137 30-390 limits assumed, chain 2 of 2) above", "experiment": "Octet BLI, IgG captured", "description": "as §1"}, "[4]": {"target": "T4, mouse LTBP1-proTGFβ1 complex (mouse, UniProt Q8CG19 339-1712; P04202 30-390)", "T4 construct": "Exemplary entries; In the cell assays expressed from mouse LTBP1S and mouse proTGFb1 plasmids in LN229 cells; also called Mo LTBP1-proTGFβ1; MuLTBP1-ProTGFb1", "experiment": "Octet BLI, IgG captured", "description": "as §1"}, "[5]": {"target": "T5, mouse LTBP3-proTGFβ1 complex (mouse, UniProt Q61810 41-1245; P04202 30-390, limits assumed)", "T5 construct": "Exemplary entries; also called Mo LTBP3-proTGFβ1; Murine LTBP3 proTGFb1", "T5 sequence (Q61810 other isoform, or with tags, fused parts or gaps limits assumed, chain 1 of 2)": "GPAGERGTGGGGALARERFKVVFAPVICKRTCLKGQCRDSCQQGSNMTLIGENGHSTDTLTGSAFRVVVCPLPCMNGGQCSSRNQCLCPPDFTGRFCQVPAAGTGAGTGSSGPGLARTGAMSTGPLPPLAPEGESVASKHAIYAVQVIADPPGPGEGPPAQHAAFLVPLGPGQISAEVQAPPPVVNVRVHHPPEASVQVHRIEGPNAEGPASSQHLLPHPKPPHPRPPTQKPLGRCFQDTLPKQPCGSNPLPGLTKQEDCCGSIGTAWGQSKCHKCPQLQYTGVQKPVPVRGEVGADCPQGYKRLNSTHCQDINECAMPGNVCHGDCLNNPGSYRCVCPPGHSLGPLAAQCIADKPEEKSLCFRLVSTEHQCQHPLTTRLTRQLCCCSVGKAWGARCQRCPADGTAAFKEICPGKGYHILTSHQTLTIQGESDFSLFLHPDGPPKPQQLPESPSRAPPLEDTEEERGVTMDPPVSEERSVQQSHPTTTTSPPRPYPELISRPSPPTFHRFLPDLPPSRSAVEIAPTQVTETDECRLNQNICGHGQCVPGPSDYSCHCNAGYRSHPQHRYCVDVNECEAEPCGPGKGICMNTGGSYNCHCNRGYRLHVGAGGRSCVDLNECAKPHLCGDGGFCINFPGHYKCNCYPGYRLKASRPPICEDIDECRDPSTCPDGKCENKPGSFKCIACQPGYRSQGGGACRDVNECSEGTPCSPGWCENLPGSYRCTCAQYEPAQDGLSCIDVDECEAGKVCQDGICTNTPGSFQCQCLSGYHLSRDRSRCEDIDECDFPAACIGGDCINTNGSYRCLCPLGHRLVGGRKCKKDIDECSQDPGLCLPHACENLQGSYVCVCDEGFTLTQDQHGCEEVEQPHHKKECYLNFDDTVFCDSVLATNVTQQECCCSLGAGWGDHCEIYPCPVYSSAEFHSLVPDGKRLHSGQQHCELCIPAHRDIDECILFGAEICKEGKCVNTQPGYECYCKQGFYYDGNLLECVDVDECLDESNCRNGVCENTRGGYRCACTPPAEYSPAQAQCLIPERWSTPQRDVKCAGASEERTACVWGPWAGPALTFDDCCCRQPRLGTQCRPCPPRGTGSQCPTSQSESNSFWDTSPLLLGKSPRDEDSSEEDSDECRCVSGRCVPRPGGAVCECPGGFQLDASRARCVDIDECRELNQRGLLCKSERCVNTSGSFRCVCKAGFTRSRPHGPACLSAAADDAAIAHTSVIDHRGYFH", "T5 sequence (P04202 30-390 limits assumed, chain 2 of 2)": "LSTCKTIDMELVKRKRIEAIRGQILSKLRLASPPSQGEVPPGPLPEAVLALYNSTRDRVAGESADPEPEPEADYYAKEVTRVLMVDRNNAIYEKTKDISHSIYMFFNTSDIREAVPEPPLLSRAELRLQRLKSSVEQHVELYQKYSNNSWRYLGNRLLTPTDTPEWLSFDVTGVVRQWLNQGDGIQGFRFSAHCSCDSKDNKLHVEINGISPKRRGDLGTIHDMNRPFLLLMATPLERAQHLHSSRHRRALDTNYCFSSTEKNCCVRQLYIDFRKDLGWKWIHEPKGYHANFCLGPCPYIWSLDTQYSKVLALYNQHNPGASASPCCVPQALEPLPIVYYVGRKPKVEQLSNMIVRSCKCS", "experiment": "Octet BLI, IgG captured", "description": "as §1"}, "[6]": {"target": "LTBP-proTGFβ1: transfected human proTGFβ1 presented by endogenous LTBP1/3 of LN229 cells (human)", "sequence (P01137 30-390)": "as the sequence (P01137 30-390 limits assumed, chain 2 of 2) above", "experiment": "cell-based or functional assay"}, "[7]": {"target": "T4, mouse LTBP1-proTGFβ1 complex", "experiment": "cell-based or functional assay"}, "[8]": {"target": "T6, human LRRC33-proTGFβ1 complex (human, UniProt Q86YC3 19-650; P01137 30-390, limits assumed)", "T6 construct": "Exemplary entries; also called huLRRC33 proTGFb1; HuLRRC33-ProTGFb1", "T6 sequence (Q86YC3 19-650 limits assumed, chain 1 of 2)": "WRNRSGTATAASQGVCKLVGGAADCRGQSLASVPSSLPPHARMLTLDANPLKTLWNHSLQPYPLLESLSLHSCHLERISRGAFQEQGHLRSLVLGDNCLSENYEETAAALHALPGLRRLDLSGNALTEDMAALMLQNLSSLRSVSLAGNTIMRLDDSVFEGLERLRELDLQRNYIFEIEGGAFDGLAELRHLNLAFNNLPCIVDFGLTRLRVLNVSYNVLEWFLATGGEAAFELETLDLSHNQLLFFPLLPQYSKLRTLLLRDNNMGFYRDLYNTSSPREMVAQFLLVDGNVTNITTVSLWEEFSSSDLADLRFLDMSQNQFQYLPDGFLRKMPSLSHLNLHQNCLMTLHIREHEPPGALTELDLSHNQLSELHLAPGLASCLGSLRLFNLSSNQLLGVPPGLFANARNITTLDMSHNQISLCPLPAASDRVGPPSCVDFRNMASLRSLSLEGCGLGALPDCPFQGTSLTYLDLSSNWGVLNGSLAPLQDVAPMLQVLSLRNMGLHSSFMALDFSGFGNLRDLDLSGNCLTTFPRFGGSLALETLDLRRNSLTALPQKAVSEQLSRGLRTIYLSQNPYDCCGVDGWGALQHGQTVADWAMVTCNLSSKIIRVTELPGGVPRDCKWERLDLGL", "T6 sequence (P01137 30-390 limits assumed, chain 2 of 2)": "as the sequence (P01137 30-390 limits assumed, chain 2 of 2) above", "experiment": "Octet, antibody immobilized"}, "[9]": {"target": "T3, human LTBP1-proTGFβ1 complex", "experiment": "Octet binning; competitor (immobilized second antibody) SR-AB1", "description": "(§2) 500 nM of human LTBP1-proTGFb1 complex was pre-incubated with 1 μM of each test antibody. After an overnight incubation, the LTBP1-proTGFβ1+first antibody was tested for binding to a second antibody which was immobilized to an Anti-Human IgG Fc Capture (AHC) sensor tip at 67 nM. The sensor tip was blocked with a negative control antibody (HuNeg) before seeing the LTBP1-proTGFβ1+first antibody.\n(§3) Normalized responses less than 70% or less than 0.7 of the uninhibited interaction were considered antibodies that cross block."}, "[10]": {"target": "T3, human LTBP1-proTGFβ1 complex", "experiment": "Octet binning; competitor (immobilized second antibody) SR-AB10", "description": "as §2, §3"}, "mature TGFβ1": {"target": "T7, mature TGFβ1 (UniProt P01137 279-390)", "T7 construct": "mature", "T7 sequence (P01137 279-390 limits assumed)": "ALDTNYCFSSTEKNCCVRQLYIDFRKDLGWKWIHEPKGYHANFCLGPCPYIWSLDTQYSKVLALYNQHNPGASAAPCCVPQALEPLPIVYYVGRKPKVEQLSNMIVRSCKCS", "experiment": "FIG. 2B binding assay"}, "[11]": {"target": "T3, human LTBP1-proTGFβ1 complex", "experiment": "Octet binning; competitor (immobilized second antibody) SR-AB2", "description": "as §2, §3"}, "Rat LTBP1-proTGFβ1": {"target": "T8, Rat LTBP1-proTGFβ1 (rat)", "T8 construct": "the sheet labels the whole complex 'Rat'; Named only on the sheet; The legend says only that SR-AB2 cross-reacts with rodent LTBP1-proTGFβ1", "experiment": "bio-layer interferometry sensorgrams (y axis nm), concentration series with kinetic table under the panel; concentrations not shown"}, "[12]": {"target": "T3, human LTBP1-proTGFβ1 complex", "experiment": "bio-layer interferometry sensorgrams (y axis nm), concentration series with kinetic table under the panel; concentrations not shown"}, "[13]": {"target": "T4, mouse LTBP1-proTGFβ1 complex", "experiment": "bio-layer interferometry sensorgrams (y axis nm), concentration series with kinetic table under the panel; concentrations not shown"}, "proTGFβ1 alone": {"target": "T9, proTGFβ1 alone (Homo sapiens (Human), UniProt P01137 30-390)", "T9 construct": "proTGFβ1 not in complex with a presenting molecule", "T9 sequence (P01137 30-390)": "as the sequence (P01137 30-390 limits assumed, chain 2 of 2) above", "experiment": "ELISA on immobilised antigen (Example 4), RLU, mean ± SD"}, "LTBP1 alone": {"target": "T10, LTBP1 alone (Homo sapiens (Human), UniProt Q14766 347-1721)", "T10 construct": "LTBP1 not in complex with TGFβ1", "T10 sequence": "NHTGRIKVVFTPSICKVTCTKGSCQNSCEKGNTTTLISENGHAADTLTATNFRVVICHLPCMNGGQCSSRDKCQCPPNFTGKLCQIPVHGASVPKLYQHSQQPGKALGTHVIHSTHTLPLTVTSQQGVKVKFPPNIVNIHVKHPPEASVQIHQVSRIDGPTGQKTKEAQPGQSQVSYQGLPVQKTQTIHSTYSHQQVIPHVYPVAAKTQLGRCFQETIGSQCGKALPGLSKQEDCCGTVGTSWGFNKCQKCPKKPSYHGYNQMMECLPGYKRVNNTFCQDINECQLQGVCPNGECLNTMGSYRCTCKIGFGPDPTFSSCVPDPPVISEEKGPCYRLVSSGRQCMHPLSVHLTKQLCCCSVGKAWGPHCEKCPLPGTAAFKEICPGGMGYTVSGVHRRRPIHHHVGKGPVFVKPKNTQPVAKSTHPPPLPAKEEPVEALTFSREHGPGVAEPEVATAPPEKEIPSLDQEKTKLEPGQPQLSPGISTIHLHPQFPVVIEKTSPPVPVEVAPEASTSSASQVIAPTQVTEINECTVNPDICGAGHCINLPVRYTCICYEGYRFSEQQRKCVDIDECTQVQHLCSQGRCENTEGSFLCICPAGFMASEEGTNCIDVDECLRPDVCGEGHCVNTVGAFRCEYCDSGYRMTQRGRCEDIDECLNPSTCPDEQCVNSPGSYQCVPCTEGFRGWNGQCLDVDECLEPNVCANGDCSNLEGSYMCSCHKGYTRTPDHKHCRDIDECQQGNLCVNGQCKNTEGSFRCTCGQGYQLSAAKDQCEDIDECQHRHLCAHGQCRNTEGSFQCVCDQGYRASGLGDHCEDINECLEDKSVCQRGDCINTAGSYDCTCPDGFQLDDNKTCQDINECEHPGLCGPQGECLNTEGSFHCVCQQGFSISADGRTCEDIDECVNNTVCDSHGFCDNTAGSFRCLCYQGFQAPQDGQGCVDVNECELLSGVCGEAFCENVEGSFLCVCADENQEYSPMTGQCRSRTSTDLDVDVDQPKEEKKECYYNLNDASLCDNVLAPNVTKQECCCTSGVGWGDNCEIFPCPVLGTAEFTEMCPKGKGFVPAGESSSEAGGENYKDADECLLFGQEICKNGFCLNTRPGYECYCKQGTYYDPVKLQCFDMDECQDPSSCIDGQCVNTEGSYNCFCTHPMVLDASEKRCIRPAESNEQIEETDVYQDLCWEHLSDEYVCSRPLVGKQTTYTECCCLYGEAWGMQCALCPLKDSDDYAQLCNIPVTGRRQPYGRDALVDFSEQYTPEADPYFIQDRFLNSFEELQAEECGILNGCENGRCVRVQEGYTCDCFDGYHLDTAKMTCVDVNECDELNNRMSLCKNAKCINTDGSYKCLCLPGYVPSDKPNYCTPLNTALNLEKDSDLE", "experiment": "ELISA on immobilised antigen (Example 4), RLU, mean ± SD"}, "[14]": {"target": "T3, human LTBP1-proTGFβ1 complex", "experiment": "Octet binning; competitor (immobilized second antibody) SR-AB13", "description": "as §2, §3"}, "[15]": {"target": "T1, human GARP-proTGFβ1 complex", "experiment": "Octet (bio-layer interferometry), yeast expressed IgG1Agly antibody, antigen at a single 100 nM per Example 6"}, "[16]": {"target": "T5, mouse LTBP3-proTGFβ1 complex", "experiment": "Octet (bio-layer interferometry), yeast expressed IgG1Agly antibody, antigen at a single 100 nM per Example 6"}, "[17]": {"target": "T3, human LTBP1-proTGFβ1 complex", "experiment": "Octet (bio-layer interferometry), yeast expressed IgG1Agly antibody, antigen at a single 100 nM per Example 6, 1:1 fit; value printed under the panel"}, "[18]": {"target": "T4, mouse LTBP1-proTGFβ1 complex", "experiment": "Octet (bio-layer interferometry), yeast expressed IgG1Agly antibody, antigen at a single 100 nM per Example 6, 1:1 fit; value printed under the panel"}}, "data": [{"binder": "SR-AB23 (antibody, IgG1, V domains shown, Cycle 2, lineage SR-AB14) VH: QVQLVESGGGVVQPGRSLRLSCAASGFTFRSYVMHWVRQAPGKGLEWVAVISHEGSLKYYADSVKGRFTISRDNSKNTLYLQMNSLRAEDTAVYYCARPRIAARRGGFGYWGQGTLVTVSS VL: NFMLTQPHSVSESPGKTVTISCTRSSGNIDNNYVQWYQQRPGSSPTTVIYEDNQRPSGVPDRFSGSIDSSSNSASLTISGLKTEDEADYYCQSYDSDNQGVVFGGGTKLTVL", "values": [{"measurement": "binding result", "setting": "[1]", "value": "no binding (tested: 200 nM)"}, {"measurement": "Kd", "setting": "[2]", "value": 1.26, "unit": "nM"}, {"measurement": "Kd", "setting": "[3]", "value": 5.98, "unit": "nM"}, {"measurement": "Kd", "setting": "[4]", "value": 8.38, "unit": "nM"}, {"measurement": "Kd", "setting": "[5]", "value": 7.93, "unit": "nM"}, {"measurement": "IC50, endogenous hLTBP assay (CAGA12 luciferase)", "setting": "[6]", "value": 6.04, "unit": "nM"}, {"measurement": "IC50, mLTBP1 assay (CAGA12 luciferase)", "setting": "[7]", "value": 0.946, "unit": "nM"}, {"measurement": "binding result", "setting": "[8]", "value": "no binding"}]}, {"binder": "SR-AB2 (antibody, V domains shown) VH: QVQLVQSGAEVKKPGASVKVSCKASGYTFTSYGISWVRQAPGQGLEWMGWISAYNGNTNYAQKLQGRVTMTTDTSTSTAYMELRSLRSDDTAVYYCARAPLGNFDSWGQGTMVTVSS VL: NFMLTQPHSVSESPGKTVTISCTRSSGSIASNYVQWYQQRPGSSPTTVIYEDNQRPSGVPDRFSGSIDSSSNSASLTISGLKTEDEADYYCQSYDSSNHPVVFGGGTKLTVL", "values": [{"measurement": "normalized response", "setting": "[9]", "value": "1.11 fraction of uninhibited binding"}, {"measurement": "normalized response", "setting": "[10]", "value": "1.54 fraction of uninhibited binding"}, {"measurement": "binding result", "setting": "mature TGFβ1", "value": "no binding"}, {"measurement": "normalized response", "setting": "[11]", "value": "0.47 fraction of uninhibited binding"}, {"measurement": "Kd", "setting": "Rat LTBP1-proTGFβ1", "value": 174, "unit": "nM"}, {"measurement": "kobs", "setting": "Rat LTBP1-proTGFβ1", "value": 0.0176, "unit": "s⁻¹"}, {"measurement": "koff", "setting": "Rat LTBP1-proTGFβ1", "value": 0.00582, "unit": "s⁻¹"}, {"measurement": "kon", "setting": "Rat LTBP1-proTGFβ1", "value": 41900, "unit": "M⁻¹ s⁻¹"}, {"measurement": "Kd", "setting": "[12]", "value": 188, "unit": "nM"}, {"measurement": "kobs", "setting": "[12]", "value": 0.0142, "unit": "s⁻¹"}, {"measurement": "koff", "setting": "[12]", "value": 0.00502, "unit": "s⁻¹"}, {"measurement": "kon", "setting": "[12]", "value": 28400, "unit": "M⁻¹ s⁻¹"}, {"measurement": "Kd", "setting": "[13]", "value": 204, "unit": "nM"}, {"measurement": "kobs", "setting": "[13]", "value": 0.0134, "unit": "s⁻¹"}, {"measurement": "koff", "setting": "[13]", "value": 0.00517, "unit": "s⁻¹"}, {"measurement": "kon", "setting": "[13]", "value": 26600, "unit": "M⁻¹ s⁻¹"}, {"measurement": "binding result", "setting": "proTGFβ1 alone", "value": "no binding"}, {"measurement": "binding result", "setting": "LTBP1 alone", "value": "no binding"}, {"measurement": "normalized response", "setting": "[14]", "value": "1.31 fraction of uninhibited binding"}, {"measurement": "binding result", "setting": "[15]", "value": "no binding (tested: 100 nM)"}, {"measurement": "binding result", "setting": "[16]", "value": "no binding (tested: 100 nM)"}, {"measurement": "Kd", "setting": "[17]", "value": 118, "unit": "nM"}, {"measurement": "Kd", "setting": "[18]", "value": 245, "unit": "nM"}]}]}
